Patent US20140308285A1 (Amgen, published 2014)

T1: cynomolgus monkey CD3 (CD3 epsilon chain) on cynomolgus monkey T cells (cynomolgus monkey (Macaca fascicularis), UniProt Q95LI5 22-198)
T1 chain: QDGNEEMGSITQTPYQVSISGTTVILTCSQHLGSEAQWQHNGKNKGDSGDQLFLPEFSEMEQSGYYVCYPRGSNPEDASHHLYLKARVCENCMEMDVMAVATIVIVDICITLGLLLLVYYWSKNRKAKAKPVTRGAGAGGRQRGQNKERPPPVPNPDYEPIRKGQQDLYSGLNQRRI

B1: H71365.2 (bispecific antibody)
chain 1: QVQLVESGGGVVQPGRSLRLSCAASGFTFSSYGMHWVRQAPGKGLEWVAVISYPGNTKYYADSVKGRFTISRDNSKNTLYLQMNSLRAEDTAVYFCARDQKEWRLIFDYWGQGTLVTVSSGGGGSGGGGSQVQLQESGPGLVKPSQTLSLTCTVSGGSINNNNYYWTWIRQHPGKGLEWIGYIYYSGSTFYNPSLKSRVTISVDTSKTQFSLKLSSVTAADTAVYYCAREDTMTGLDVWGQGTTVTVSSASTKGPSVFPLAPCSRSTSESTAALGCLVKDYFPEPVTVSWNSGALTSGVHTFPAVLQSSGLYSLSSVVTVPSSNFGTQTYTCNVDHKPSNTKVDKTVGGGGSAAAVPRDLEVVAATPTSLLISWDAPHHGVAYYRITYGETGGNSPVQEFTVPGSKSTATISGLKPGVDYTINVYAVLAYPRGYPLSKPISINYRTDYKDDDDKGSSHHHHHH
chain 2: DIQMTQSPSSVSASVGDRVTITCRASQGISSWLAWYQQKPGKAPKLLIYAASSLQSGVPSRFSGSGSGAAFTLTISSLQPEDFATYFCQQANSFPLTFAGGTKVDIKRGGGGSGGGGSDIQMTQSPSSLSASVGDRVTITCRASQSINNYLNWYQQKPGKAPTLLIYAASSLQSGVPSRFSGSRSGTDFTLTISSLQPEDFAAYFCQQTYSNPTFGQGTKVEVKRTVAAPSVFIFPPSDEQLKSGTASVVCLLNNFYPREAKVQWKVDNALQSGNSQESVTEQDSKDSTYSLSSTLTLSKADYEKHKVYACEVTHQGLSSPVTKSFNRGEC
notes: also called H71364.2
B2: H69071.4 (bispecific antibody)
chain 1: QVQLQESGPGLVKPSQTLSLTCTVSGGSINNNNYYWTWIRQHPGKGLEWIGYIYYSGSTFYNPSLKSRVTISVDTSKTQFSLKLSSVTAADTAVYYCAREDTMTGLDVWGQGTLVTVSSGGGGSGGGGSDIQMTQSPSSVSASVGDRVTITCRASQGISSWLAWYQQKPGKAPKLLIYAASSLQSGVPSRFSGSGSGAAFTLTISSLQPEDFATYFCQQANSFPLTFAGGTKVDIKRASTKGPSVFPLAPCSRSTSESTAALGCLVKDYFPEPVTVSWNSGALTSGVHTFPAVLQSSGLYSLSSVVTVPSSNFGTQTYTCNVDHKPSNTKVDKTVGGGGSAAAVPRDLEVVAATPTSLLISWDAPHHGVAYYRITYGETGGNSPVQEFTVPGSKSTATISGLKPGVDYTINVYAVLAYPRGYPLSKPISINYRTDYKDDDDKGSSHHHHHH
chain 2: QVQLVESGGGVVQPGRSLRLSCAASGFTFSSYGMHWVRQAPGKGLEWVAVISYPGNTKYYADSVKGRFTISRDNSKNTLYLQMNSLRAEDTAVYFCARDQKEWRLIFDYWGQGTLVTVSSGGGGSGGGGSDIQMTQSPSSLSASVGDRVTITCRASQSINNYLNWYQQKPGKAPTLLIYAASSLQSGVPSRFSGSRSGTDFTLTISSLQPEDFAAYFCQQTYSNPTFGQGTKVEVKRTVAAPSVFIFPPSDEQLKSGTASVVCLLNNFYPREAKVQWKVDNALQSGNSQESVTEQDSKDSTYSLSSTLTLSKADYEKHKVYACEVTHQGLSSPVTKSFNRGEC
notes: also called H69071.2
B3: H69070.4 (bispecific antibody)
chain 1: QVQLVESGGGVVQPGRSLRLSCAASGFTFSSYGMHWVRQAPGKGLEWVAVISYPGNTKYYADSVKGRFTISRDNSKNTLYLQMNSLRAEDTAVYFCARDQKEWRLIFDYWGQGTLVTVSSASTKGPQVQLQESGPGLVKPSETLSLTCTVSGGSIISHYWSWIRQPPGKGLEWIGYIYYSGSTNYNPSLKSRVTISVDTSKNQFSLKLTSVTAADTAVYYCARDGWSAFDYWGQGTLVTVSSASTKGPSVFPLAPCSRSTSESTAALGCLVKDYFPEPVTVSWNSGALTSGVHTFPAVLQSSGLYSLSSVVTVPSSNFGTQTYTCNVDHKPSNTKVDKTVGGGGSAAAVPRDLEVVAATPTSLLISWDAPHHGVAYYRITYGETGGNSPVQEFTVPGSKSTATISGLKPGVDYTINVYAVLAYPRGYPLSKPISINYRTDYKDDDDKGSSHHHHHH
chain 2: DIQMTQSPSSVSASVGDRVTITCRASQGISSWLAWYQQKPGKAPKLLIYAASSLQSGVPSRFSGSGSGAAFTLTISSLQPEDFATYFCQQANSFPLTFAGGTKVDIKRTVAAPDIQMTQSPSSLSASVGDRVTITCRASQGIRNALGWYQQKPGKAPKRLIYAASSLQSGVPSRFSGSGSGTEFTLTISSLQPEDFATYYCLQHNSYPRTFGQGTKVEIRRTVAAPSVFIFPPSDEQLKSGTASVVCLLNNFYPREAKVQWKVDNALQSGNSQESVTEQDSKDSTYSLSSTLTLSKADYEKHKVYACEVTHQGLSSPVTKSFNRGEC
B4: H69072.4 (bispecific antibody)
chain 1: DIQMTQSPSSVSASVGDRVTITCRASQGISSWLAWYQQKPGKAPKLLIYAASSLQSGVPSRFSGSGSGAAFTLTISSLQPEDFATYFCQQANSFPLTFAGGTKVDIKRGGGGSGGGGSQVQLQESGPGLVKPSQTLSLTCTVSGGSINNNNYYWTWIRQHPGKGLEWIGYIYYSGSTFYNPSLKSRVTISVDTSKTQFSLKLSSVTAADTAVYYCAREDTMTGLDVWGQGTTVTVSSASTKGPSVFPLAPCSRSTSESTAALGCLVKDYFPEPVTVSWNSGALTSGVHTFPAVLQSSGLYSLSSVVTVPSSNFGTQTYTCNVDHKPSNTKVDKTVGGGGSAAAVPRDLEVVAATPTSLLISWDAPHHGVAYYRITYGETGGNSPVQEFTVPGSKSTATISGLKPGVDYTINVYAVLAYPRGYPLSKPISINYRTDYKDDDDKGSSHHHHHH
chain 2: DIQMTQSPSSLSASVGDRVTITCRASQSINNYLNWYQQKPGKAPTLLIYAASSLQSGVPSRFSGSRSGTDFTLTISSLQPEDFAAYFCQQTYSNPTFGQGTKVEVKGGGGSGGGGSQVQLVESGGGVVQPGRSLRLSCAASGFTFSSYGMHWVRQAPGKGLEWVAVISYPGNTKYYADSVKGRFTISRDNSKNTLYLQMNSLRAEDTAVYFCARDQKEWRLIFDYWGQGTLVTVSSRTVAAPSVFIFPPSDEQLKSGTASVVCLLNNFYPREAKVQWKVDNALQSGNSQESVTEQDSKDSTYSLSSTLTLSKADYEKHKVYACEVTHQGLSSPVTKSFNRGEC
B5: P57216.9 (bispecific antibody)
chain 1: QVQLQESGPGLVKPSQTLSLTCTVSGGSINNNNYYWTWIRQHPGKGLEWIGYIYYSGSTFYNPSLKSRVTISVDTSKTQFSLKLSSVTAADTAVYYCAREDTMTGLDVWGQGTLVTVSSASTKGPEVQLVESGGGLVKPGVSLRLSCAASGFTFSRYSMNWVRQAPGKGLEWVSSISSSGTYIKYADSVKGRFTISRDNAKNSLNLQMNSLRAEDTAVYYCARDRDRYPLDYWGQGTLVTVSSASTKGPSVFPLAPCSRSTSESTAALGCLVKDYFPEPVTVSWNSGALTSGVHTFPAVLQSSGLYSLSSVVTVPSSNFGTQTYTCNVDHKPSNTKVDKTVGGGGSAAAVPRDLEVVAATPTSLLISWDAPHHGVAYYRITYGETGGNSPVQEFTVPGSKSTATISGLKPGVDYTINVYAVLAYPRGYPLSKPISINYRTDYKDDDDKGSSHHHHHH
chain 2: DIQMTQSPSSLSASVGDRVTITCRASQSINNYLNWYQQKPGKAPTLLIYAASSLQSGVPSRFSGSRSGTDFTLTISSLQPEDFAAYFCQQTYSNPTFGQGTKVEVKRTVAAPSSYELTQPPSVSVSPGQTARITCSGDALPKKYAYWYQQKSGQAPVLVIYEATKRPSGIPERFSGSSSGTMATLTLSGAQVEDEADYYCYSTDSTNYHWVFGGGTKLTVLGQPKAAPSVTLFPPSSEELQANKATLVCLISDFYPGAVTVAWKADSSPVKAGVETTTPSKQSNNKYAASSYLSLTPEQWKSHRSYSCQVTHEGSTVEKTVAPTECS
B6: P69058.3 (bispecific antibody)
chain 1: QVQLQESGPGLVKPSQTLSLTCTVSGGSINNNNYYWTWIRQHPGKGLEWIGYIYYSGSTFYNPSLKSRVTISVDTSKTQFSLKLSSVTAADTAVYYCAREDTMTGLDVWGQGTLVTVSSGGGGSGGGGSSSYELTQPPSVSVSPGQTARITCSGDALPKKYAYWYQQKSGQAPVLVIYEATKRPSGIPERFSGSSSGTMATLTLSGAQVEDEADYYCYSTDSTNYHWVFGGGTKLTVLGASTKGPSVFPLAPCSRSTSESTAALGCLVKDYFPEPVTVSWNSGALTSGVHTFPAVLQSSGLYSLSSVVTVPSSNFGTQTYTCNVDHKPSNTKVDKTVGGGGSAAAVPRDLEVVAATPTSLLISWDAPHHGVAYYRITYGETGGNSPVQEFTVPGSKSTATISGLKPGVDYTINVYAVLAYPRGYPLSKPISINYRTDYKDDDDKGSSHHHHHH
chain 2: EVQLVESGGGLVKPGVSLRLSCAASGFTFSRYGMNWVRQAPGKGLEWVSSISSSGTYIKYADSVKGRFTISRDNAKNSLNLQMNSLRAEDTAVYYCARDRDRYPLDYWGQGTLVTVSSGGGGSGGGGSDIQMTQSPSSLSASVGDRVTITCRASQSINNYLNWYQQKPGKAPTLLIYAASSLQSGVPSRFSGSRSGTDFTLTISSLQPEDFAAYFCQQTYSNPTFGQGTKVEVKRTVAAPSVFIFPPSDEQLKSGTASVVCLLNNFYPREAKVQWKVDNALQSGNSQESVTEQDSKDSTYSLSSTLTLSKADYEKHKVYACEVTHQGLSSPVTKSFNRGEC

Biological target: T1, cynomolgus monkey CD3 (CD3 epsilon …)
Assay: cell-based or functional assay

Row | Cyno TDCC EC50 (pM), Ovcar-8 cells with cynomolgus monkey T cells [pM] | Binder | Cyno TDCC Max killing (%), Ovcar-8 cells with cynomolgus monkey T cells [%]
1 | 8.1 | B1 | 86
2 | 3.2 | B2 | 88
3 | 3 | B3 | 88
4 | 18.8 | B4 | 91

biological target: T2, human CD3 (CD3 epsilon chain) on human T cells (human, UniProt P07766 22-207); assay: FACS on isolated human T cells, FITC anti-human light chain secondary antibody
T2 construct: The assay used isolated human T cells, which carry CD3 as part of the TCR-CD3 complex; also called CD3ε
Experimental: (§1) The heterodimeric bispecific antibodies described in Example 1 were produced in HEK 293 cells and were assayed by fluorescence activated cell sorting (FACS) for binding to T cells, which express CD3, and to a human ovarian cancer cell line, Ovcar-8, which expresses mesothelin. Briefly, the heterodimeric bispecific antibodies were incubated with about 50,000 Ovcar-8 cells or isolated human or cynomolgus monkey T cells at 4° C. for one hour. The cells were then washed and stained with a fluorescein isothiocyanate (FITC)-conjugated anti-human light chain secondary antibody and analyzed by flow cytometry. The relative binding was represented by the geometric mean of fluorescence intensity.

T2 sequence (P07766 22-207 limits assumed): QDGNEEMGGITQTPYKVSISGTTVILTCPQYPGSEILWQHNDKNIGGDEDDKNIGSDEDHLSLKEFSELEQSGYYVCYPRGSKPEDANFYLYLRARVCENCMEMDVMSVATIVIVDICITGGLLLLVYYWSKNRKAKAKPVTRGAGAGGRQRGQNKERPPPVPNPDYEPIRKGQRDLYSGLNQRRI

Row | FACS binding (geometric mean) | Binder
5 | 103 | B5
6 | 290 | B6

biological target: T2, human CD3 (CD3 epsilon chain) on human …; assay: as above; remark: another data set of the same source
Experimental: as §1
(§2) Another set of constructs was made by methods similar to those used above using the same pair of anti-MSLN VH and VL regions as used in most constructs described above and a different pair of anti-CD3 VH and VL regions than used in most of the constructs described above. […] These constructs were tested using the assays described above, as well as the cynomolgus monkey T cell-dependent cell cytolysis (called “cyno TDCC”) assay described below.

Row | FACS binding (geometric mean) | Binder
7 | 66 | B1
8 | 16 | B2
9 | 9 | B3
10 | 11 | B4

Biological target: T1, cynomolgus monkey CD3 (CD3 epsilon …)
Assay: FACS on isolated cynomolgus monkey T cells, FITC anti-human light chain secondary antibody
Experimental: as §1, §2

Row | FACS binding (geometric mean) | Binder
11 | 276 | B1
12 | 121 | B2
13 | 127 | B3
14 | 110 | B4
